A short description of this series: soluble on expression in E. coli; label from the status in PepcDB or PDB records.
Take “MSLGLDNLYRVLDANVNRTSEGLRVLEDLARFCYNDRLLSKRIKELRHSVRKNIAGLVPNLISSRDSVNDVGLKTSMEMDIDRKASLLDLARANFKRVQEALRTVEESLKVLNENDLSKFYESCRFETYSIEKEYFKVLTFENKKGRLNEIITGLYCITSEEHSKGRSNIEVVEKMIKAGVKIIQYREKKKSLLEKYNECKKIREMTLDSGVTFIVNDNIDIAMMVKADGVHIGQDDLPIEKVRELVGDEMIIGISTHSPTQAEDAVRRGADYIGVGPLYRTYTKEDVCEPVGLEYLDYVVKNINIPYVAIGGIKEHNMDEVLARGARCIAMVTEIVGADDIEEKISKVKSKFSRGEGHHHHHH”: the “soluble on expression in E. coli” value was “soluble”. To “MSLGLVLSTNVAHIQQDPGGDDRISGINKLPVATGIDVFIPGPNYGDGSGVVGDAIGDSLHHGGAHKAIYAYSREELDFFDPTYRNGYFGENLTTSGIVLEDLLINQQVRIGTTLLEVSIPRRPCRTFAHWLDIKGWLKTFTQRGLPGSYFRVIEEGHINPGDPIEVLQAPDHDITMSMAFRAKMGNKDLARRVVAANCLPARYHEELLKLIEGHHHHHH” belongs “not soluble”; to “MSLGNASMTKTDIATRVHNHTWKLDPIVRSLIDTDFYKLLMLQMIWKLYPEVDATFSLINRTKTVRLAEEIDEMELREQLDHARTLRLSKKENIWLAGNTFYGRSQIFEPEFLSWLSSYQLPEYELFKRDGQYELNFHGRWMDTTLWEIPALSIINELRSRSAMRSLGYFTLDVLYARAKAKMWEKVERLRELPGLRISDFGTRRRHSFLWQRWCVEALKEGIGPAFTGTSNVLLAMDSDLEAVGTNAHELPMVVAALAQTNEELAAAPYQVLKDWNRLYGGNLLIVLPDAFGTAAFLRNAPEWVADWTGFRPDSAPPIEGGEKIIEWWRKMGRDPRTKMLIFSDGLDVDAIVDTYRHFEGRVRMSFGWGTNLTNDFAGCAPKTIASLKPISIVCKVSDANGRPAVKLSDNPQKATGDPAEVERYLKFFGEEDHKEQKVLVEGHHHHHH”, “soluble”. The value for “MSLGNYNSQYENYYRNLQNRSIRTSSYYKSSGFNRKNLGEKIIKKIEFQLIGTLVLFLAVFSLREVITPETKAACNYIKYTVSYNYDYSQILSYIEGFNLNDVETYASKIDMDSLKNQSVDYIENLKARVTGEKTFGAKIKQEYCLPINGKIASHFKQKDKDVLGNQYLNNGVDIKANSDLDVKAIYDGTVEKVGEDKDFGKYVMVDNGDGVESKYSNMDSFEVQRGDGVTKGEVLGKVKKNDDASKSYLHFEIMYMGENQDPENYFTFKEGHHHHHH” was “not soluble”; that for “MSLGPIIMGQSLKAGIFFRIVTGSASMSSDRADGSSVTYSSNRSGNPDLRLIHYNDVYHVEPGSAEPVGGAPRFQSVINHYRSHPSFDGQPTPLTFFSGDAFNPSLESTVTKGRHMVPFLNKAGTNVACVGNHDLDFGVAQFRHLRNQCQFPWLLANVLDPALGEDVPIANCEKTCMLTSSNGIKVGVIGLGEREWLGTINSLPPDLIYKSASKTAIELVPSLREQGAELIVAVTHQREPNDYKLAESIPYGMIDIILGGHDHFYGHAFLNGVHILRSGTDFKQLSYIEAFRKTDGRGWDFNIVRREGHHHHHH” was “soluble”. The value for “MSLGQFSISEVGHFYIAANTSLKHIHVTCAIIERDGLVLAAQRSAVMSLPLKWEFPGGKIDPGESPEECLRRELVEEMAVHVRVGQSLPVSTHQYPTFSVTLYPFLCTIESGEIVLHEHVAVTWLPPDELHTLDWAEADLPVIKSYQQGCRMRDHEGHHHHHH” was “not soluble”. For “MSLGSAIETLERLLKKRLRVPQEQLDTNPWLLNCANGTVDLRTGTLKAHRPEDYITRVVPLNFDPKATAPEFITTLARITCEEGQAGKPLCAFLQRWFGYCATGEVREQKFAVLYGDGNNGKSTLLDLITGILGRYSGVAAPGLLTGKNGPQHPNAIADLAGRRMVTTHESGEGEVLREDFVKQATGGDTLKARYLYGEFFEFKPTHKLQLLTNHKPAIKGQDSGIWRRIMLIPFKAKFDAAEGEEIGNGKYPRDMRIAEKLAAEREGVLAWIVAGAVEWYKNGLRPPDIVLAASEDYKEEQDRVGQFIDEECELGVEKEEKLSTPMGGGLYPAYTQWCKASGVCALSKVRFLGGLERRVPGFKKKVTKETVGAGKRREFVVIQGVALVDADEGHHHHHH”, the “soluble on expression in E. coli” value is recorded as “not soluble”. The value for “MSLGTLPPELQNTCVARGKLPLLLDLDNTLLHAQAASATGCDVRLQDWIDPYGEPELYRFELPCNRKTYYMKLRPHLRTFLKKLEPFYEMSVYTNATQEYADIVIAILDGNRQLFQDRIVARDSGFRGEASENKAVRRLYEGMDKRCIVAFDDRQNIWTDLPLTHVVKAQHYDFFDSHKTELNAYYPPLSNGIEGMTAPDVLGNRQNEDEGHHHHHH” was “not soluble”; that for “MSLGVEENPKLPKSVQRHLEPDERVLFAIKKKISIEKPKWLLVTDRRIIYLDEKVLGRYDFKAIPYQKLEQVVVKLGIMSSEFIIEGEENITLKLGWMDKEEARKAINAIKDALNAIAVEPVSIDVNKGLTSETWVLKKPREFVTRTMPAYQPAQVREEKEDPLEKLKKLKELYDMGVISQEEYEEKRKKLLEEIEGHHHHHH” was “soluble”. Turning to “MSLGVSFNIMCPNSSIYSDEKSRVLVDKTKSGKVRPWREKKIANVDYFELLHILEFKKAERVKDCAEILEYKQNRETGERKLYRVWFCKSRLCPMCNWRRAMKHGIQSQKVVAEVIKQKPTVRWLFLTLTVKNVYDGEELNKSLSDMAQGFRRMMQYKKINKNLVGFMRATEVTINNKDNSYNQHMHVLVCVEPTYFKNTENYVNQKQWIQFWKKAMKLDYDPNVKVQMIRPKNKYKSDIQSAIDETAKYPVKDTDFMTDDEEKNLKRLSDLEEGLHRKRLISYGGLLKEIHKKLNLDDTEEGDLIHTDDDEKADEDGFSIIAMWNWERKNYFIKEEGHHHHHH”, the “soluble on expression in E. coli” value was “soluble”. To “MSLHKEYIQNYLNLTRNTGNLMLFAGDQKIEHLNEDFYGKDISKDDADPEHLFKIAENSKIGGFAVQFGLLSRYGRDHKDINYIVKLNSKTNLVDTNQKDPLSRALLDINDILEFKKNSGINIVGVGYTIYLGSEYESEMLSEASKIIYEAHKGGLVVILWIYPRGKAVKDEKDSELISGATGVAACLGADFVKVNYPKSENPAESFKEAVMAAGRTKVVCAGGSSTDIESFLKQLYEQIHISGASGNATGRNIHQKSLSDAVSMCNAIYAITIDGKTVSEALNIYNERKSEGHHHHHH” belongs “not soluble”; to “MSLHLSKGFSNMIGVVLPTVNLPYFAELIAGIADAAAESGVHLSLFQTNYEVQKEIFALSQLKQRQVDGLIFCSKALADEKLMEWEGPILLCQNSDNARFPTISIPHQEAFRNGLDYLIAKGHKKIAICLARKKGMNSHFRIKAYKEALEEIGEAFREDWVIEKAITINDGKALFHKWNTWKEKPTAIFVANDQVSAGLFLEAKNQRVSVPDELAILSVDNHEISQALGITTIDIQTREMGKQAFAILEKRIQGQPIERKVLDYRLIERSTVEGHHHHHH”, “soluble”; to “MSLIEIPGFIDLHTHTRYPDNDKFPFIDIDDSAINGGFSTILAMPNSEIPIDSIKNLRIAQEIDKKLKTKVHRVGSLTKNLEGKELVNYKEFVENGITIFSDDGKSLINDHLADEAFKQISKLGGAVFQHCEKSCHSKPGDIAPPNSNSDLILINNDEELEVLERDLSLSEKYGTRYHAQHLSTFESVELIKKAKQEGLPVTAEVTPHHILLNNENLDTNNGLFKMYPPLRTEKDREGLVEGLQSEIIDVIATDHAPHKAETKNVPFKDANRGVVGLNEGHHHHHH”, “soluble”. To “MSLIHEISENEKPREKLQNYGIEALSSSELVALIIETGTKNESVLTIANRIIMKFKNVGEMQYASIEEFQLVNGIGIAKASKIMAAIELGRRIGIVTEQEEVVVRCPEDAVKLVMPELAFLFQEHFHCLFLNTKNQVIYRQTIFVGGLNASIVHPREVFRLALRKSAASIMCFHNHPSGDPTPSSEDLLVTKRLAEAGNIVGITLLDHIIIGKNKYISLKEKGYFEGHHHHHH” belongs “not soluble”; to “MSLIILDNHFHVDPNHGLFLEAVKQFQRAGGTHLIVVYKTAHDYGFPGLKAEDFMKAMDFHIELVEKINRETQVKAYAVVGVHPAEFDYLARNKGLEFARNEVMKALEYAQKLCLEGKAVGIGEVGRPHYEVPQQIWEVSIEIMKYAMELAKDADCAVQLHTESFNEEKFRELGEYIREVGIKPYKVVKHFSPPLVNVAKEVGVFPSIIASKKNIEEAIKQGNRFLMETDYIDDKRRPGAVLGPKTVPKRTKEFLQRGIFTEEDVYKIHVENPKKVYGIEIEGHHHHHH”, “soluble”; to “MSLIINNIALHFLSKKEETGEVVLRLGPENAEFAQENAKVTNFVDGLHAIYNAKGSKAYGSFSSMPSEGDSARFVDLMESYLTEQQNFYDFSVQAGNVLKNEIEKYDIEETGYFVICHYEYMGGRYLFVAVIPVSEHYSVDGELNISAAQHLDTNKLQLAARIDLFDYKDNSQGNRYISFVKGRAGRKVSDFFLDFLGCEEGLNSKEQTQTLVQAVEDYVSVNQLDPAEKQKTRKDLLSYCKEQKASSQDVSLQEVGKVIESAGTEQDFYQFCQTQSYPIEESFPHEQAVVNKITKYSGYGNGISLSFERSHFGEDVVYNPHNDSLIIYKVPPNLKEQLMALLDSEKVETDLEHHHHHH”, “not soluble”. The value for “MSLILVTGAAGFIGSHLCEQLLMNEKVSVVGVDGHIDSSLCKVKERNVRNLLKHPRFTLLKQDLLTIDLEPLVDQVDVIYHLSGIPGVRSSWGTDFKKYVTHNIVATQQLLEACRRHSLEKFIYISTSSVYGQKNGKVGEKASPTPLSPYGVSKLTGEHLCNVYYRNFSIPTVILRYFTVYGPRQRQDMAFHRFIKAIIDNQPIPIFGDGNQSRDFTYIDDCIAATCAVLHADVIGETINIGGKERATVLQIISMLESIFQKDAKLQFLEKPFGEPMSTWADISKAEKLLRYSPNVPLLQGIEKEVDEGHHHHHH” was “soluble”; that for “MSLIMKVVVKVGSNLLVGSSGLRKSYIAELCREVARLKSQGHEISIITSGARAAGFTYLGKGKRTQDLHIKQALCAVGQVQLMKVYENAFDFYGIKIAQILLTRDTFSNRKRYLNLRNTLIGLSEFDVVPIVNENDTVATEEITLGDNDTLAAMFSIAWDADFLVLFTTVDGVIDENGKLVERFDESVKLKDMGKSSWGTGGIRSKIESALMASRCGVKATICSGNDVSNLTRFVKGEPVGTVFEPQGRLKAKKAWIAFLSEPAGKIYVNKGAEEALKSGNSLLPVGVTGVEGTFDVGDVVEIVNEEGELVGRGIVNYSSSDLEKIAGHKSSDLKKILGYEGNKVVVHIDNMWVAEGHHHHHH” was “soluble”. On to “MSLINVQNVSKTFILHQQNGVRLPVLNRASLTVNAGECVVLHGHSGSGKSTLLRSLYANYLPDEGQIQIKHGDEWVDLVTAPARKVVEIRKTTVGWVSQFLRVIPRISALEVVMQPLLDTGVPREACAAKAARLLTRLNVPERLWHLAPSTFSGGEQQRVNIARGFIVDYPILLLDEPTASLDAKNSAAVVELIREAKTRGAAIVGIFHDEAVRNDVADRLHPMGASEGHHHHHH”, for which the “soluble on expression in E. coli” value was “not soluble”. To “MSLIRMALAAVCALLFSITTMTPFVQASEITISGSTSVARIMDVLAEKYNQQHPETYVAVQGVGSTAGISLLKKGVADIAMTSRYLTESEAQNTLHTFTLAFDGLAIVVNQANPVTNLTREQLYGIYKGQITNWKQVGGNDQKIAVVTREASSGTRYSFESLMGLTKTVKDREVSDVAPTALVVNSNSMMKTLVNHNTQAVGFISIGSVDKSVKAIQFEKADPTSDNIAKHTYQLSRPFLILHYSDNADEQTKEFIAFLKSESAKKLIVEYGYIMPSDVEEGGSHHHHHH” belongs “soluble”.

Values taken from the DeepSol protein solubility set.
